According to paper doi:10.1101/322719:

Target: Kaposi's sarcoma-associated herpesvirus (KSHV) ORF68 protein (Kaposi's sarcoma-associated herpesvirus (KSHV))
Experiment: SEC

“Kaposi's sarcoma-associated herpesvirus (KSHV) ORF68 protein (natural protein)” gave a stoichiometry N of 5.
